According to article PMC9687869, “Redox Regulation of Signaling Complex between Caveolin-1 and Neuronal Calcium Sensor Recoverin” (Biomolecules, 2022):

T1: recombinant myristoylated recoverin, reduced monomer (Rec) (UniProt P21457 1-202, N-terminal myristoyl group (myristoylation rate more than 95%))
T1 construct: recoverin, photoreceptor neuronal calcium sensor; also called intact recoverin; wild-type recoverin
T1 sequence (looked up): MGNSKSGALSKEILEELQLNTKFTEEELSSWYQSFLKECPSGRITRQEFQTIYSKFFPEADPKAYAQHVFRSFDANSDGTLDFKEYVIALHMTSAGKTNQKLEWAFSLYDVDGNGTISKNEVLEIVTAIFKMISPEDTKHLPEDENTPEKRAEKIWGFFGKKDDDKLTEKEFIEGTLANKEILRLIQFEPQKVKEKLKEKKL

B1: disulfide dimer of recoverin (dRec) (natural protein)
chain: GNSKSGALSKEILEELQLNTKFTEEELSSWYQSFLKECPSGRITRQEFQTIYSKFFPEADPKAYAQHVFRSFDANSDGTLDFKEYVIALHMTSAGKTNQKLEWAFSLYDVDGNGTISKNEVLEIVTAIFKMISPEDTKHLPEDENTPEKRAEKIWGFFGKKDDDKLTEKEFIEGTLANKEILRLIQFEPQKVKEKLKEKKL
modifications: N-terminal myristoyl group; disulfide between the cysteine-39 residues of the two chains
B2: N-terminal fragment of caveolin-1 M1-R101 with N-terminal His6-tag (Cav) (domain or fragment, UniProt Q03135 1-101, looked up)
chain: MSGGKYVDSEGHLYTVPIREQGNIYKPNNKAMADELSEKQVYDAHTKEIDLVNRDPKHLNDDVVKIDFEDVIAEPEGTHSFDGIWKASFTTFTVTKYWFYR
notes: caveolin-1, N-terminal domain and oligomerization domain, residues M1-R101; Forms homogeneous oligomers in solution by DLS; the number of copies was not measured; It names pET-22b and an N-terminal His6-tag; also called Cav (1-101 aa) fragment; caveolin-1 fragment; source: E. coli BL21 Star (DE3), solubilised in guanidine hydrochloride, dialysed, purified (Ni-NTA)
B3: recoverin C39D mutant (Rec-C39D) (natural protein, UniProt P21457 1-202, looked up)
chain: MGNSKSGALSKEILEELQLNTKFTEEELSSWYQSFLKEDPSGRITRQEFQTIYSKFFPEADPKAYAQHVFRSFDANSDGTLDFKEYVIALHMTSAGKTNQKLEWAFSLYDVDGNGTISKNEVLEIVTAIFKMISPEDTKHLPEDENTPEKRAEKIWGFFGKKDDDKLTEKEFIEGTLANKEILRLIQFEPQKVKEKLKEKKL
modifications: N-terminal myristoyl group (myristoylation rate more than 95%)
notes: recoverin with C39D, which mimics oxidation of cysteine-39 to a sulfenic/sulfinic/sulfonic group; also called thiol oxidation mimicking mutant; oxidized monomer mimic

Columns and labels:
Conditions in all cases: both partners purified
[1] = molecular target: B2; experiment: pull-down; Cav or CavE covalently attached to BrCN-activated Sepharose CL-4B; 50 ug recoverin form; 20 mM Tris-HCl pH 7.5, 100 mM NaCl, 2 mM MgCl2, 2 mM EGTA (calcium-free); 30 min at room temperature; bound protein analysed by SDS-PAGE
[2] = molecular target: B3; experiment: SPR; Cav or CavE immobilised by amine coupling (ProteOn GLH chip); analyte 2.5-30 uM recoverin form; 10 mM HEPES pH 7.4, 150 mM NaCl, 2 mM DTT (none for dRec), 0.05% TWEEN 20, calcium-free (1 mM EDTA in the methods, 2 mM EGTA in Table 2); 25 C; heterogeneous ligand model
[3] = molecular target: B1; experiment: as above
[4] = molecular target: T1, recombinant myristoylated recoverin, …; experiment: as above
[5] = molecular target: B3; experiment: SPR; Cav or CavE immobilised by amine coupling (ProteOn GLH chip); analyte 2.5-30 uM recoverin form; 10 mM HEPES pH 7.4, 150 mM NaCl, 2 mM DTT (none for dRec), 0.05% TWEEN 20, with calcium (1 mM CaCl2 in the methods, 2 mM Ca2+ in Table 2); 25 C; heterogeneous ligand model

fold increase of the interaction against Rec (pull-down) [1] [fold] | Kd [2] [nM] | koff [2] [s⁻¹] | Kd [3] [nM] | koff [3] [s⁻¹] | Kd [4] [nM] | koff [4] [s⁻¹] | Kd [5] [nM] | koff [5] [s⁻¹] | Binder
2 to 3 |  |  |  |  |  |  |  |  | B1
 | 140 ± 44 | 0.000117 | 48.6 ± 1.1 | 2.44e-05 | 490 ± 160 | 0.000105 | 376 ± 173 | 0.000186 | B2
2 to 3 |  |  |  |  |  |  |  |  | B3
 | 329 ± 145 | 0.000172 | 218 ± 87 | 8.08e-05 | 1110 ± 66 | 8.81e-05 | 629 ± 257 | 0.000202 | N-terminally tagged caveolin-1 fragment M1-R101 with Y14E substitution (CavE) (domain or fragment, UniProt Q03135 1-101, looked up, caveolin-1, residues M1-R101 with Y14E, which mimics phosphorylation at Y14; built on Cav; Forms larger oligomeric particles than Cav by DLS; also called caveolin-1 mutant Y14E; source: E. coli BL21 Star (DE3), solubilised in guanidine hydrochloride, dialysed, purified (Ni-NTA)) MSGGKYVDSEGHLETVPIREQGNIYKPNNKAMADELSEKQVYDAHTKEIDLVNRDPKHLNDDVVKIDFEDVIAEPEGTHSFDGIWKASFTTFTVTKYWFYR
